Test results: PMC10648297

Target: 2-cysteine (Cys) peroxiredoxin A, recombinant mature wild type, tag-free (Arabidopsis)
Assay: LC/MS of the intact protein (deconvoluted masses); oxidised 2CPA with 0 to 19.2 mM GSH and NEM, 50 mM Tris pH 7.5, 25 °C; C4 column, acetonitrile gradient with 0.1% HCOOH; shows disulfide-linked dimers

stoichiometry N: 2
Substance: 2-cysteine (Cys) peroxiredoxin A, recombinant mature wild type, tag-free (enzyme)
